Results taken from publication PMC10696041.

B1: MBP-CUB1CUB2 domains of PCPE-2, WT [human] / bone morphogenetic protein-1 [human] (parent)
chain 1: QSPERPVFTCGGILTGESGFIGSEGFPGVYPPNSKCTWKITVPEGKVVVLNFRFIDLESDNLCRYDFVDVYNGHANGQRIGRFCGTFRPGALVSSGNKMMVQMISDANTAGNGFMAMFSAAEPNERGDQYCGGLLDRPSGSFKTPNWPDRDYPAGVTCVWHIVAPKNQLIELKFEKFDVERDNYCRYDYVAVFNGGEVNDARRIGKYCGDSPPAPIVSERNELLIQFLSDLSLTADGFIGHYIFRPK
chain 2: AATSRPERVWPDGVIPFVIGGNFTGSQRAVFRQAMRHWEKHTCVTFLERTDEDSYIVFTYRPCGCCSYVGRRGGGPQAISIGKNCDKFGIVVHELGHVVGFWHEHTRPDRDRHVSIVRENIQPGQEYNFLKMEPQEVESLGETYDFDSIMHYARNTFSRGIFLDTIVPKYEVNGVKPPIGQRTRLSKGDIAQARKLYKCPACGETLQDSTGNFSSPEYPNGYSAHMHCVWRISVTPGEKIILNFTSLDLYRSRLCWYDYVEVRDGFWRKAPLRGRFCGSKLPEPIVSTDSRLWVEFRSSSNWVGKGFFAVYEAICGGDVKKDYGHIQSPNYPDDYRPSKVCIWRIQVSEGFHVGLTFQSFEIERHDSCAYDYLEVRDGHSESSTLIGRYCGYEKPDDIKSTSSRLWLKFVSDGSINKAGFAVNFFKEVDECSRPNRGGCEQRCLNTLGSYKCSCDPGYELAPDKRRCEAACGGFLTKLNGSITSPGWPKEYPPNKNCIWQLVAPTQYRISLQFDFFETEGNDVCKYDFVEVRSGLTADSKLHGKFCGSEKPEVITSQYNNMRVEFKSDNTVSKKGFKAHFFSEKRPALQPPRGRPHQLKFRVQKRNRTPQ

Variants of: B1
Test: SPR
Settings: with bone morphogenetic protein-1 [human]; 50 nM MBP-CUB1CUB2; immobilized BMP-1 (1302 RU); parent: 17; read off a plot

Variant	response [RU]
chain 1 F87A	16
chain 1 R150A	18
chain 1 K46A E197A R220A	7.2

Same assay, conditions: with bone morphogenetic protein-1 [human]; 50 nM MBP-CUB1CUB2; immobilized BMP-1 (1302 and 1492 RU); parent: 100; read off a plot

Variant	percent of parent (% binding / WT)
chain 1 K46A E197A R220A	40
